This note sets out measurements from the nanobody polyreactivity screen of Harvey et al. (2022).

The nature of the data set: yeast display, Sf9 membrane polyspecificity reagent, FACS + sequencing; frameworks hold sequencing errors. The gist of the method:
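After 36–48 hours of galactose induction, yeast (Saccharomyces cerevisiae BJ5465) displaying a synthetic nanobody library were stained at 4 °C for 1 hour with 10% biotinylated, detergent-solubilized Sf9 membrane reagent. Streptavidin microbeads enriched the stained cells before FACS sorting into low and high (top ~1%) gates on anti-HA and streptavidin fluorescence. Each clone's polyreactivity label reflects its gate of origin.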
For the sequence “QVQLVESGGGLVQAGGSLRLSCAASGIILFYAMGWYRQAPGKERELVAAISSGGGTSYADSVKGRFTISRDNAKNTVYLHMNSLKPEDTAVYYCNADGYSYFWYPSYARGHDYWGQGTQVTVSS”, the “polyreactivity (PSR sort gate)” value is “low polyreactivity”.

With “QVQLVESGGGLVQAGGSLRLSCAASGIILGKNAMGWYRQAPGNERELVASITSGAGITYYADSVKGRFTISRDNAKNTVNLQINSLKPEDTAVYYCAADWSGDYFTDGYWGQGPQVTVSS”, the “polyreactivity (PSR sort gate)” value was “low polyreactivity”.

Regarding “QVQLVESGGGLVQAGGSLRLSCAASGIILGYYAMGWYRQAPGKERELVAAITRSGGRTYYADSVKGRFTISRDNAKNTVYLQMNSLKPEDTGVYYCAADDPYTPQYPDVTYDYWGQGTQVTVSS”, the “polyreactivity (PSR sort gate)” value is reported as “high polyreactivity”.

As to “QVQLVESGGGLVQAGGSLRLSCAASGIILPWNAMGWYRQAPGKERELVAAISWSGTSTYYADSVQGRFTISRDNAKNTVYLQMNSLKPEDTAVYYCAAAYWWSWRYDYWGQGTQVTVSS”, the “polyreactivity (PSR sort gate)” value is given as “low polyreactivity”.

For the sequence “QVQLVESGGGLVQAGGSLRLSCAASGIILQSYTMGWYRQAPGKERELVAALTKSGGRTYYADSVKGRFTISRDNAKNTVYLQMNSLKPEDTAVYYCAAPLSYSYDYSGQGTQVTVSS”, the “polyreactivity (PSR sort gate)” value was “high polyreactivity”.

For “QVQLVESGGGLVQAGGSLRLSCAASGIILRYYAMGWYRQAPGKEREMVAAISYSGGRTYYADSVKGRFTISRDNAKNTVYLQMNSLKPEDTAVYYCAADYGYRIIASYDYWGQGTQVTVSS”, the “polyreactivity (PSR sort gate)” value is listed as “high polyreactivity”.

As for “QVQLVESGGGLVQAGGSLRLSCAASGIILSPYTMGWYRQAPGKERELVAGISRSGGTTYYADSVKGRFTISRDNAKNTVYLQMNSLKPEDTAVYYCAAGLIYGYSGYDSWGQGTQVTVSS”, the “polyreactivity (PSR sort gate)” value is reported as “low polyreactivity”.

Turning to “QVQLVESGGGLVQAGGSLRLSCAASGIILTQNAMGWYRQEPGKVRELVAAITESGARTYYADSVMGRFTISRDTAQNTVYLQMNSLKPEATAVYYCATEGPWGYDYWGIGTQVTVSS”, the “polyreactivity (PSR sort gate)” value was “low polyreactivity”.

Regarding “QVQLVESGGGLVQAGGSLRLSCAASGIILYRNGMGWYRQAPGKERELVAVISRRGGTYYADSVKGRFTISRDNAKITVYLQLNSLKPEDTAVYYCAAYLSPIGNFRGGGDYWGQGTQVTVSS”, the “polyreactivity (PSR sort gate)” value is reported as “high polyreactivity”.

Consider “QVQLVESGGGLVQAGGSLRLSCAASGIISAGYAMGWYRQAPGKERELVAAISTSGTSTYYADSVKGRFTISRDNAKNTVYLQMNSLKPEDTAVYYCAYTYYYGVGYYYWGQGTQVTVSS”, for which the “polyreactivity (PSR sort gate)” value is reported as “low polyreactivity”.

With “QVQLVESGGGLVQAGGSLRLSCAASGIISIFNVMGWYRQAPGKERELVASITGRGGSTFYADSVKGRFTISRDNAKNTDYLQLNSLIPEDTAVYYCATDTGYTYPVTGLYDYWGQGTQVTVSS”, the “polyreactivity (PSR sort gate)” value is given as “low polyreactivity”.

With “QVQLVESGGGLVQAGGSLRLSCAASGIISRYYAMGWYRQAPGKERELVASISSGVGTNYADSVKGRFTISRDNAKNTVYLQMNSLKPEDTAVYYCAARFRYYRHYYWGQGSQVTVSS”, the “polyreactivity (PSR sort gate)” value is “high polyreactivity”.

For the sequence “QVQLVESGGGLVQAGGSLRLSCAASGIISSVYAMGWYRQAPGKERELVAAISGSGGSTYYADSVKGRFTISRDNAKNTVYLQMNSLKPEDTAVYYCAKGYQYQGNSYGYWGQGTQVTVSS”, the “polyreactivity (PSR sort gate)” value is given as “low polyreactivity”.

For “QVQLVESGGGLVQAGGSLRLSCAASGIISTYYVMGWYRQAPGKERELVAAITGGDTSTYYADSVKGRFTISRDNAKKTVYLQMNSLKPEDTADYYCAKEYYYARGARYDYWGQGTQVTVSS”, the “polyreactivity (PSR sort gate)” value is reported as “low polyreactivity”.

As to “QVQLVESGGGLVQAGGSLRLSCAASGIISTYYVMGWYRQAPGKERELVAAITGGGTYYADSVKGRFTISRDNAKNTVYLQMNSLKPEDTAVYYCAVDGTYAYGYSRDYDYWGQGTQVTVSS”, the “polyreactivity (PSR sort gate)” value was “low polyreactivity”.

On to “QVQLVESGGGLVQAGGSLRLSCAASGIISVRNTMGWYRQAPGKERELVAAISGSGGSTHYADSVKGRFTISRDNAKNTVYLQMNSLKTEDTEVYYCAVRSYGYWHFGYWGQGTQVTVSS”, for which the “polyreactivity (PSR sort gate)” value is reported as “high polyreactivity”.

“QVQLVESGGGLVQAGGSLRLSCAASGIIYWDYAMGWYRQAPGKEREYVAAINTSGGTTTYADSVKGRFTISRDNAKNTVYFQMNSLKREDTAVYYCAADPWVYYSYAYYSWGQGTQVTVSS”: the “polyreactivity (PSR sort gate)” value is on record as “low polyreactivity”.

“QVQLVESGGGLVQAGGSLRLSCAASGIIYYTYAMGWYRQAPGKERELVATISWDVDSTNYADSVKGRFTISRDNAKNTVYLQMNSLKPEDTALYYCAGDYTVDSYWYWVDYYEYGYWGQGTQVTVSS”: the “polyreactivity (PSR sort gate)” value is “high polyreactivity”.

For “QVQLVESGGGLVQAGGSLRLSCAASGIMFFLYAMGWYRQAPGKERELVAAISSGGSTYYAVSVKGRFTISRDNAKNTVYLQMNSLKPEDTAVYYCNARYWPFRYYYWGQGTQVTVSS”, the “polyreactivity (PSR sort gate)” value is on record as “high polyreactivity”.

For the sequence “QVQLVESGGGLVQAGGSLRLSCAASGIMFTSNTMGSYRQAPGKEREFVASINWNGSSTYADSVKGRFTISRDNAKNTDYLQMNSLKPEDTAVYYCNADYNRNSVQFSLYDYWGQGTQVTVSS”, the “polyreactivity (PSR sort gate)” value is “low polyreactivity”.

For the sequence “QVQLVESGGGLVQAGGSLRLSCAASGINFYDYAMGWYRQAPGKEREFVAAISWDGVSTYYADSVKGRFTISRDNAKNTVYLQMNSLKPEDTAVYYCAARAVTDDYYEFDYWGQGTQVTVSS”, the “polyreactivity (PSR sort gate)” value is reported as “low polyreactivity”.

Take “QVQLVESGGGLVQAGGSLRLSCAASGINFYRYAMGWYRQAPGKERELVAAITGSGGNTYYADSVKGRFTISRDNAKNTVYLQMNSLKPEDTAVYYCAKRDYRHQYNYWGQGTQVTVSS”: the “polyreactivity (PSR sort gate)” value was “high polyreactivity”.

“QVQLVESGGGLVQAGGSLRLSCAASGINLFYYAMGWYIQAPGKETDFVAAISWSGGSTYYADSVKGRFTISRDNAQNTVYLQMNSLKPEDTALYYCAAKWYSYRWTQFDYWGQGTQVTVSS”: the “polyreactivity (PSR sort gate)” value is “high polyreactivity”.

On to “QVQLVESGGGLVQAGGSLRLSCAASGISFSYYAMGWSRQAPGKERELVAAISSSGSTNYADSVKGRFTISRDNAKNTVYLQMNSLKPEDTAVYYCNAGYGRRVYVYSFKLRYNYWGQGTQVTVSS”, for which the “polyreactivity (PSR sort gate)” value is on record as “high polyreactivity”.

Regarding “QVQLVESGGGLVQAGGSLRLSCAASGISFTYNTMGWSRQAPGKESELVAAITSGGGTNYADSVKGRFTISRDNAKNTVYLQMNSLKPEDTAVYYCAKDPGTVGPIWYDYWGQGTQVTVSS”, the “polyreactivity (PSR sort gate)” value is “low polyreactivity”.

Regarding “QVQLVESGGGLVQAGGSLRLSCAASGISFWDYAMGWYRQAPGKERELVAAISSGGSTYYADSVKGRFTISRDNAKNTVYLQMNSLKPEDTAVFYCNAEQRYYRKVKGNYWGQGTQVSVSS”, the “polyreactivity (PSR sort gate)” value is recorded as “high polyreactivity”.

Take “QVQLVESGGGLVQAGGSLRLSCAASGISFYLYAMGWYRQAPGKERELVAAISWRGDSTYYADSVKGRFTISRDNAKNTVYLQMNSLKPEDTAVYYCAADLLPLYDYWGQGTQVTGSS”: the “polyreactivity (PSR sort gate)” value is given as “high polyreactivity”.

As to “QVQLVESGGGLVQAGGSLRLSCAASGISSWYYAMGWYRQAPGKERELVAAITSDGRTNYADSVKGRFTISRDNAKNTVYLQMKSLKPEDTAVYYCAAARRVGVSHYRYGYWGHGTQVTVSS”, the “polyreactivity (PSR sort gate)” value is reported as “high polyreactivity”.

Regarding “QVQLVESGGGLVQAGGSLRLSCAASGITFAGYARGWYRQAPGKERELVAAISGSGGSTYYADSVKGRFTISRDNAKNTVYLQMNSLKPEDTAVYYCNADVVPQYYSWGQGTQVTVSS”, the “polyreactivity (PSR sort gate)” value is “low polyreactivity”.

With “QVQLVESGGGLVQAGGSLRLSCAASGITFAQYAMGWYRQAPGKERELVAGITRSGGSTHYADSVKGRFTISRDNAKNSVYLQMNSLKPEDTAVYYCAKGLSTGRAYRGYDYWGQGTQVTVSS”, the “polyreactivity (PSR sort gate)” value is “high polyreactivity”.

Take “QVQLVESGGGLVQAGGSLRLSCAASGITFASYAMGWYRQAPGKERELVAAISRTGGSTYYADSVKGRFTISRDNAKNTVYLQMNSLKPEDTAVYYCAARIPYTGYDYWGQGTQVTVSS”: the “polyreactivity (PSR sort gate)” value is reported as “high polyreactivity”.

For the sequence “QVQLVESGGGLVQAGGSLRLSCAASGITFATNAMGWYRQAPGKERELVAGITSGGSTYYADSVKGRFTISRDNAKNTVYLQMNSLKPEDTAVYYCNTAVKVERDYWGQGTQVTVSS”, the “polyreactivity (PSR sort gate)” value was “low polyreactivity”.

On to “QVQLVESGGGLVQAGGSLRLSCAASGITFAWYAMGWYRQAPGKERELVAAIDDRGGSTYYADSVKGRFTISRDNAKNTVYFQMNSLKPEDTAVYYCNADTKSYEPYRLDYWGQGTQVTVSS”, for which the “polyreactivity (PSR sort gate)” value is reported as “low polyreactivity”.

For the sequence “QVQLVESGGGLVQAGGSLRLSCAASGITFAYNAMGWYRQAPGKERELVAAITTGGDTYYADSVKGRFTISRDNAKNTVYLQMNSLKPEDTAVYYCAATPTYWYLWSPYDYWGQGTQVTVSS”, the “polyreactivity (PSR sort gate)” value is listed as “low polyreactivity”.

Turning to “QVQLVESGGGLVQAGGSLRLSCAASGITFAYNVMGWYRQAPGKERELVAAISWTGSSTYYADSVKGRFTISRDNAKNTVYLQMNSLKQEDTAVYYCAARQRYRYDYWGQGTQVTVSS”, the “polyreactivity (PSR sort gate)” value is listed as “high polyreactivity”.

With “QVQLVESGGGLVQAGGSLRLSCAASGITFAYYAMGRSRQAPGKERELVAAIRWSGGDTYYADSVKGRFTISRDNAKNTVYLQMNSLKPEDTAVYYCAADTTWGYDYWGQGTQVTVSS”, the “polyreactivity (PSR sort gate)” value is on record as “low polyreactivity”.

Consider “QVQLVESGGGLVQAGGSLRLSCAASGITFAYYVMGWYRQAPGKERELVAAITRSGDITSYADSVKGRFTISRDNAKNTVYLQMNSMKPEDTAVYYCNARRGYQSRRYNYWGQGTQVSVSS”, for which the “polyreactivity (PSR sort gate)” value was “high polyreactivity”.

Take “QVQLVESGGGLVQAGGSLRLSCAASGITFDHYTMGWYRHAPGKEREFVADITGSGVRTYYADSVKGRFTISRDNAKNTVYLQMNCLKAEDNAVYYCAKRRTLYYSGKLGYWGQGTQVTVSS”: the “polyreactivity (PSR sort gate)” value was “high polyreactivity”.

In the case of “QVQLVESGGGLVQAGGSLRLSCAASGITFDKNTMGWYRQEPGKVRELVAAISARGGSTYYADSVKGRFTISRDNSKNTVYLQMNSLKPEDTAVYYCAARSGYGPYRMDYWGQGTQVTVSS”, the “polyreactivity (PSR sort gate)” value was “high polyreactivity”.

As for “QVQLVESGGGLVQAGGSLRLSCAASGITFDKYAMGWYRQAPGKERQLVAAISGSDGSTYYADSVKGRFTITRDNAKNTVYLQMNSLKPEDTAVYYCAAESEYAGTYEYDYWGQGSQVTVSS”, the “polyreactivity (PSR sort gate)” value was “low polyreactivity”.

“QVQLVESGGGLVQAGGSLRLSCAASGITFDRYAMGWYRQAPGKERELVAAITSGGRTYYADSVKGRFTISRDNAKNTVYLQMNSLKPEDTAVYYCNATRGQYVGRYYYWGQGSQVTVSS”: the “polyreactivity (PSR sort gate)” value is listed as “high polyreactivity”.
